Test system: MS2 coat protein
Experiment: apparent KD of MS2 coat protein; designed switch direction (-1 OFF switch, 1 ON switch): -1; higher = weaker reporter binding
Procedure, shortened: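 Apparent KD, taken as the median over clusters for each design, was obtained by curve-fitting normalised cluster fluorescence. Designed RNA switches had been transcribed on Illumina chips by stalled E. coli RNA polymerase and titrated with SNAP-549-labelled MS2 coat protein, doubling from 0.7 or 1.5 nM to 3 µM.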

[1] = Eterna round: R95, input ligand: FMN 200 uM
[2] = Eterna round: R95, input ligand: microRNA oligo, concentration not stated
[3] = Eterna round: R95, input ligand: none
[4] = input ligand: microRNA oligo, concentration not stated

GAAAAGGUAGGAUAUACGAAAAAAAAGGGUACAAAAAAAACACAUGAGGAUCACCCAUGUAGAAGGACCAAAAG [salish99_ex2_r3_063] (puzzle: Exclusion 2)
apparent KD of MS2 coat protein [1]: 36.8 nM | apparent KD of MS2 coat protein [2]: 25.6 nM | apparent KD of MS2 coat protein [3]: 20.8 nM

AAGUCACAGGGAGGAUAUGUGAAAGGAAGUGUAACAGAAGGCCCAACGUAGGGCGAGACAUGAGGAUCACCCAUGUAUAAAAGA [PowerStrip EXNG 1.16] (Eterna round: R96, puzzle: Exclusion NG 1)
apparent KD of MS2 coat protein (input ligand: FMN 200 uM): 28.9 nM | apparent KD of MS2 coat protein [4]: 20.8 nM | apparent KD of MS2 coat protein (input ligand: none): 25.9 nM

CAUGUGUUAGGAUAUGCACAGAUCUCCGAAAGGAGAUCUGUGCAGAAGGAACAUGAGGAUCACCCAUGUUGAUG [Mod of Brourd 16 - Jieux - Exclusion 4] (Eterna round: R97, puzzle: Exclusion 4)
apparent KD of MS2 coat protein (input ligand: FMN 200 uM): 136 nM | apparent KD of MS2 coat protein (input ligand: none): 37.3 nM

AAGUACCGUCACGAUAGUGAUGGUACAACAAGCAAGUGAACAUGAGGAUCACCCAUGUCCUCAAUUGCUCGUCUUAU [Sensor 3 - 71] (puzzle: Sensor v3, turn-off variant 2)
apparent KD of MS2 coat protein [1]: 28.1 nM | apparent KD of MS2 coat protein [2]: 62.1 nM | apparent KD of MS2 coat protein [3]: 28.5 nM

AGCCCUGCAGGAUAUGCCCGGGAUAACAUGAGGAUCACCCAUGUGACUGAUUGUUAUUCUGCAGAAGGGUAUGGGA [JL-EX5-4.16 ViennaUCT mod] (Eterna round: R97, puzzle: Exclusion 5)
apparent KD of MS2 coat protein (input ligand: FMN 200 uM): 404 nM | apparent KD of MS2 coat protein (input ligand: none): 322 nM

UCUCGCAGGCAAGGAUAUCCUACAUUGUUCUGGCCCGGGCAUGUUACAUGAGGAUCACCCAUGUGGGAGAAGGUGCGCCAGGGC [Design 34] (Eterna round: R96, puzzle: Exclusion NG 2)
apparent KD of MS2 coat protein (input ligand: FMN 200 uM): 30.6 nM | apparent KD of MS2 coat protein [4]: 16.3 nM | apparent KD of MS2 coat protein (input ligand: none): 30.6 nM

AGUAACCGUCACGAAAGUGAUGGUUACACAAGUGUAAUAACAUGAGGAUCACCCAUGUCCUCAUUUGCUCGUCUUAU [Sensor 3 - 36] (puzzle: Sensor v3, turn-off variant 2)
apparent KD of MS2 coat protein [1]: 41.9 nM | apparent KD of MS2 coat protein [2]: 121 nM | apparent KD of MS2 coat protein [3]: 49.4 nM

GUGAGUAGUCAGGAUAUGCUGUACAAAAGUACAGCAGAAGGGAUUACAUGAGGAUCACCCAUGUGUACUUCAUG [Omei Ex6 B10] (Eterna round: R97, puzzle: Exclusion 6)
apparent KD of MS2 coat protein (input ligand: FMN 200 uM): 940 nM | apparent KD of MS2 coat protein (input ligand: none): 322 nM

AAGUACCGUCACGAUAGUGAUGGUACAACAAGUAGUGAAACAUGAGGAUCACCCAUGUCCUCUUUUGCUCGUCUUAU [Sensor 3 - 88] (puzzle: Sensor v3, turn-off variant 2)
apparent KD of MS2 coat protein [1]: 931 nM | apparent KD of MS2 coat protein [2]: 54 nM | apparent KD of MS2 coat protein [3]: 969 nM

GGGAACCGAGGAUAUCAGUACACGCACAUGAGGAUCACCCAUGUGCUCCUCGGUGCUGUCUGAGAAGGCGGUGAGA [Raonxe] (Eterna round: R97, puzzle: Exclusion 5)
apparent KD of MS2 coat protein (input ligand: FMN 200 uM): 26.9 nM | apparent KD of MS2 coat protein (input ligand: none): 17.6 nM

AGUCGAAAGAACCACAUGGACAUGAGGAUCACCCAUGUGCAAGCCUUUUUCUCGUCACUAUCGUCAAAAGACGAUAG [Omei Mir Offv1 A5] (Eterna round: R97, puzzle: Sensor, turn-off variant 1)
apparent KD of MS2 coat protein (input ligand: FMN 200 uM): 168 nM | apparent KD of MS2 coat protein (input ligand: none): 227 nM

CCAUAUAACUGAGGAUAUAAUCACCACUAACAUUUAGAAGGCAGACAUGAGGAUCACCCAUGUGAUUUCUCAAUAUUAUACAUC [Prohibition 77 - Jieux - Exclusion NG 1] (Eterna round: R96, puzzle: Exclusion NG 1)
apparent KD of MS2 coat protein (input ligand: FMN 200 uM): 387 nM | apparent KD of MS2 coat protein [4]: 544 nM | apparent KD of MS2 coat protein (input ligand: none): 1140 nM

CUCCCACAUGAGGAUCACCCAUGUGAGGAUAUGGAGCGCGACCGCGCGGUCGCGUACACCAGAAGGCGCAUGAU [1st #81] (Eterna round: R97, puzzle: Exclusion 1)
apparent KD of MS2 coat protein (input ligand: FMN 200 uM): 24.1 nM | apparent KD of MS2 coat protein (input ligand: none): 21.1 nM

GCUCGCGGGCAAGGAUAUCCUACGCUGUUCUGGUUCGUGUCUGUUACAUGAGGAUCACCCAUGUGGGAGAAGGUGCACCAGGGU [Design 49] (Eterna round: R96, puzzle: Exclusion NG 2)
apparent KD of MS2 coat protein (input ligand: FMN 200 uM): 17.5 nM | apparent KD of MS2 coat protein [4]: 12.4 nM | apparent KD of MS2 coat protein (input ligand: none): 20.1 nM

UGCUGACGAGGAUAUACAUGAGGAUCACCCAUGUAAGAUCAGCGACGAUAGUCGCAAUGUAGAAGGCGUCAGCA [E3/10-A3] (Eterna round: R97, puzzle: Exclusion 3)
apparent KD of MS2 coat protein (input ligand: FMN 200 uM): 228 nM | apparent KD of MS2 coat protein (input ligand: none): 28.5 nM

GGCUGACGCGGUAGGCCUUACAUGAGGAUCACCCAUGUCGAUGCCAUUCCAAAACACGGGUUUGAGGUUCGUCAUUG [Eternabot (L1) Solution 46] (Eterna round: R97, puzzle: Sensor, turn-off variant 1)
apparent KD of MS2 coat protein (input ligand: FMN 200 uM): 99.7 nM | apparent KD of MS2 coat protein (input ligand: none): 100 nM

GUUUAGCAAGCGAGAUCCCACAUGAGGAUCACCCAUGUGCAUCCAGAAUUACUGGGUGCAAAAGCUCGUCUUAUAUG [mod-El /newdang-1] (Eterna round: R97, puzzle: Sensor, turn-off variant 1)
apparent KD of MS2 coat protein (input ligand: FMN 200 uM): 71.8 nM | apparent KD of MS2 coat protein (input ligand: none): 71.8 nM

AAAAGAUAAGGAUAUUGAAGGUUCGACAUGAGGAUCACCCAUGUUAUGUUGGAAAAGGGACAAGAAGGUAUGAAAG [salish99_ex5_r4_203] (Eterna round: R97, puzzle: Exclusion 5)
apparent KD of MS2 coat protein (input ligand: FMN 200 uM): 31.5 nM | apparent KD of MS2 coat protein (input ligand: none): 41.8 nM

AUGGUACAUGAGGAUCACCCAUGUUAGGAUAUCGCGUGUUCUAAAACUAAGAGAUACACGAGAAGGGACGACAU (puzzle: Exclusion 1)
apparent KD of MS2 coat protein [2]: 81.2 nM

CUUAGUUGGUAAGGAUAUCCUACAUUAUUCUGACCCGUGCAAGCUACAUGAGGAUCACCCAUGUGGGAGAAGGUGCGUUAAUGU [Design 6] (Eterna round: R96, puzzle: Exclusion NG 2)
apparent KD of MS2 coat protein (input ligand: FMN 200 uM): 18.4 nM | apparent KD of MS2 coat protein [4]: 12.9 nM | apparent KD of MS2 coat protein (input ligand: none): 20.1 nM

UUUACAAGCUUAAGAUCCCACAUGAGGAUCACCCAUGUUGCUGCCGUGAGGUAGCUUUUAACUUAUGCUCGUCUUAU [JL TOV1 3.42] (Eterna round: R97, puzzle: Sensor, turn-off variant 1)
apparent KD of MS2 coat protein (input ligand: FMN 200 uM): 94 nM | apparent KD of MS2 coat protein (input ligand: none): 110 nM

UUAUUAUAUGAAGGAUAUACUUAACAUGAGGAUCACCCAUGUGGUGUUGUGAGUGAGUGAGUUUAGUAGAAGGUCAAUUCUUUU [JMF's solution 93] (Eterna round: R96, puzzle: Exclusion NG 2)
apparent KD of MS2 coat protein [4]: 418 nM

GCAAGCUUUUCGAUCCUCGACAUGAGGAUCACCCAUGUGCUCGAAUUGUUUAGUACUAUCACGAAAGUGAUAGUACA [Sensor, turn off variant 1 v.3] (Eterna round: R97, puzzle: Sensor, turn-off variant 1)
apparent KD of MS2 coat protein (input ligand: FMN 200 uM): 1570 nM | apparent KD of MS2 coat protein (input ligand: none): 1570 nM

CAGUACUGAGGAUAUACAUGAGGAUCACCCAUGUGUUCCAGCUAGGAAACUAGCAAUAGUAGAAGGCAGUACUG [salish99_ex3_r3_090x] (Eterna round: R96, puzzle: Exclusion 3)
apparent KD of MS2 coat protein (input ligand: FMN 200 uM): 417 nM | apparent KD of MS2 coat protein [4]: 19.1 nM | apparent KD of MS2 coat protein (input ligand: none): 23.2 nM

GCACGAAGUGGAGGAUAUCUGGGCGAGGAGCGCAGAGAAGGCCACAUGAGGAUCACCCAUGUUUUCCACGGAUAGCAAACGUGC [exng1 ex2.1] (Eterna round: R96, puzzle: Exclusion NG 1)
apparent KD of MS2 coat protein (input ligand: FMN 200 uM): 25.5 nM | apparent KD of MS2 coat protein [4]: 15.2 nM | apparent KD of MS2 coat protein (input ligand: none): 23 nM

AAGGCCUGAGGAUAUCAGAGUCUAAACAUGAGGAUCACCCAUGUGAACCUGGUCAGUCUGUGAGAAGGUAGUGCUC [Tequat] (puzzle: Exclusion 5)
apparent KD of MS2 coat protein [1]: 39.5 nM | apparent KD of MS2 coat protein [2]: 39.8 nM | apparent KD of MS2 coat protein [3]: 57.3 nM

AGUACUAACACGAGAGUGUUAGUACUAUAAGCUUGUGAAACAUGAGGAUCACCCAUGUCCUCAUAAGCUCGUCUUAU [Mat - Sensor v3 - Turn-off var 2 - D103] (Eterna round: R96, puzzle: Sensor v3, turn-off variant 2)
apparent KD of MS2 coat protein (input ligand: FMN 200 uM): 13.8 nM | apparent KD of MS2 coat protein [4]: 452 nM | apparent KD of MS2 coat protein (input ligand: none): 16.8 nM

CCUGCACAUGAGGAUCACCCAUGUCAGGAUAUCUCGCCGUGAAGAGCAACACGGUAUUAGAGAAGGGACACGGG [Tixe] (puzzle: Exclusion 1)
apparent KD of MS2 coat protein [2]: 20.7 nM

AAAGCACAUGAGGAUCACCCAUGUGAGGAUAUACAGAAAAUCUCGUUUACGAGGACUCGUAGAAGGCGCAGUGC [Eternabot (L2) Solution 19] (Eterna round: R97, puzzle: Exclusion 1)
apparent KD of MS2 coat protein (input ligand: FMN 200 uM): 20.9 nM | apparent KD of MS2 coat protein (input ligand: none): 21.3 nM

AUAUUGUGAGGAUAUCAGGUGUGCUAGCGUACUGGUACAUCUGAGAAGGCACAUGAGGAUCACCCAUGUUUCUU [Mat - Exclusion 4 - Mod of JL - D42] (puzzle: Exclusion 4)
apparent KD of MS2 coat protein [2]: 15.2 nM

CCCUCAUGACGCACAUGAGGAUCACCCAUGUAUAAACCGUCAGAGGAUAUCCGCCGGUCACCGAAGGAGAAGGCUGACCUAAAG [Quinlaan] (Eterna round: R96, puzzle: Exclusion NG 3)
apparent KD of MS2 coat protein (input ligand: FMN 200 uM): 21.2 nM | apparent KD of MS2 coat protein [4]: 11 nM | apparent KD of MS2 coat protein (input ligand: none): 18.2 nM

UAUUAGCAAGCAGGAUCCCACAUGAGGAUCACCCAUGUGCUCGUCUUAUAAGGUACUGUGACGAAAGUCACGGUACC [Sensor 3, v1 - 90] (puzzle: Sensor v3, turn-off variant 1)
apparent KD of MS2 coat protein [1]: 81.3 nM | apparent KD of MS2 coat protein [2]: 186 nM | apparent KD of MS2 coat protein [3]: 90.9 nM

AAGUAUAGAGGAUAUAGUAGGUACAACAUGAGGAUCACCCAUGUUCUUCAUAACGUAUUUCUAGAAGGCUGAUAAA [EX-5 Malc#27] (Eterna round: R96, puzzle: Exclusion 5)
apparent KD of MS2 coat protein (input ligand: FMN 200 uM): 356 nM | apparent KD of MS2 coat protein [4]: 135 nM | apparent KD of MS2 coat protein (input ligand: none): 126 nM
